T1: JrPHL8 (walnut (Juglans)?, UniProt A0A2I4DJV4 1-356)
T1 sequence: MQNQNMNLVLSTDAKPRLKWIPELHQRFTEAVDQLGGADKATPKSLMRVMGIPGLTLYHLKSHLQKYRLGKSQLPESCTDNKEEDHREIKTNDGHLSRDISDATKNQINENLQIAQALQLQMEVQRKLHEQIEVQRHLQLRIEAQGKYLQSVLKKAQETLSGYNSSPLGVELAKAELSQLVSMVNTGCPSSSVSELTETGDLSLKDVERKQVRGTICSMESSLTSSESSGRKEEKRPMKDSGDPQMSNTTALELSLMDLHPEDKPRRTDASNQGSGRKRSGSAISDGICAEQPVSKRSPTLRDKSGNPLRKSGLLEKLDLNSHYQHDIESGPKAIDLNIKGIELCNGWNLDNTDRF


What was measured:
[1] = target: JrWRKY4 (walnut (Juglans)?, UniProt A0A2I4E3K4 1-517); test: EMSA; LightShift Chemiluminescent EMSA Kit (Beyotime); cold probe 100-fold; buffer, salt, pH and temperature not stated; conditions: protein: recombinant; tags: pET32a fusion (Trx-His; article states His-tagged); label: biotin; blunt
JrWRKY4, sequence (A0A2I4E3K4 entry or part of it): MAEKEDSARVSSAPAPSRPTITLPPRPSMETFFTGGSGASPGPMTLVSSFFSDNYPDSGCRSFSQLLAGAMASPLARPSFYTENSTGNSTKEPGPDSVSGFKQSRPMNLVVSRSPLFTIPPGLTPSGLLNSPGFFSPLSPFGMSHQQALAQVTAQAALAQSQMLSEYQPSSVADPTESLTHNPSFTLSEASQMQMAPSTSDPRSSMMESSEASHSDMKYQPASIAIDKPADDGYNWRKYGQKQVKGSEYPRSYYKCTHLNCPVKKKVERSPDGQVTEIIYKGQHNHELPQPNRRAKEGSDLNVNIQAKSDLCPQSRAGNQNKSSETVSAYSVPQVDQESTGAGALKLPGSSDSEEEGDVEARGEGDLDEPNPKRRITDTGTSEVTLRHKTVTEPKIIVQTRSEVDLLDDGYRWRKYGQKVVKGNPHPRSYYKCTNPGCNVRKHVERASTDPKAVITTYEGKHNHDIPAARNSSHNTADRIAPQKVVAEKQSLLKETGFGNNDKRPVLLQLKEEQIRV

[2] = target: T1, JrPHL8; test: as above; conditions: protein: recombinant; tags: His (pET32a fusion); chain copies: 2; label: biotin; blunt

Row | Binder | binding result [1] | binding result [2]
1 | proJrSTH2L-Wbox (dsDNA) DNA 1: AACCTAAACCCTTTGTGAAGTTGACCAGATCCTCAACCCGGGATGG DNA 2: CCATCCCGGGTTGAGGATCTGGTCAACTTCACAAAGGGTTTAGGTT | binds | –
2 | proJrWRKY4-MBS (dsDNA) DNA 1: TTCACTATTACTGATATTCTCAACAGAAAAATGTCTAAGAGACAAT DNA 2: ATTGTCTCTTAGACATTTTTCTGTTGAGAATATCAGTAATAGTGAA | – | binds

Source: article PMC11233879, “JrPHL8-JrWRKY4-JrSTH2L module regulates resistance to Colletotrichum gloeosporioides in walnut”
